{
  "source": "paper PMC7308080",
  "about": "“The His-Gly motif of acid-sensing ion channels resides in a reentrant ‘loop’ implicated in gating and ion selectivity” (eLife, 2020)",
  "proteins": {"B1": {"name": "full-length chicken acid-sensing ion channel 1 (cASIC1) solubilized in styrene maleic acid copolymer (natural protein, Gallus gallus (chicken), UniProt Q1XA76 1-527, looked up)", "chain": "MMDLKVDEEEVDSGQPVSIQAFASSSTLHGISHIFSYERLSLKRVVWALCFMGSLALLALVCTNRIQYYFLYPHVTKLDEVAATRLTFPAVTFCNLNEFRFSRVTKNDLYHAGELLALLNNRYEIPDTQTADEKQLEILQDKANFRNFKPKPFNMLEFYDRAGHDIREMLLSCFFRGEQCSPEDFKVVFTRYGKCYTFNAGQDGKPRLITMKGGTGNGLEIMLDIQQDEYLPVWGETDETSFEAGIKVQIHSQDEPPLIDQLGFGVAPGFQTFVSCQEQRLIYLPPPWGDCKATTGDSEFYDTYSITACRIDCETRYLVENCNCRMVHMPGDAPYCTPEQYKECADPALDFLVEKDNEYCVCEMPCNVTRYGKELSMVKIPSKASAKYLAKKYNKSEQYIGENILVLDIFFEALNYETIEQKKAYEVAGLLGDIGGQMGLFIGASILTVLELFDYAYEVIKHRLCRRGKCRKNHKRNNTDKGVALSMDDVKRHNPCESLRGHPAGMTYAANILPHHPARGTFEDFTC", "notes": "the final models contain residues 17-462; Homotrimer in SMA copolymer with endogenous lipids; Expression is 'as previously described (Yoder et al., 2018a)'; also called cASIC1-SMA; SMA-cASIC1a"}},
  "target": "the molecule itself",
  "test": "cryo-EM structure; single-particle cryo-EM of purified cASIC1-SMA at ~1 mg/ml, pH adjusted to 7.0 with MES pH 6.0, TBS with 1 mM DTT; low pH desensitized state; C3 symmetry in the final refinement",
  "data": [
    {"protein": "B1", "values": [
      {"measurement": "stoichiometry N", "result": 3}
    ]}
  ]
}
